Data set [1] has as its target T1, Cdc13 (Saccharomyces cerevisiae, UniProt P32797 1-924).
T1 sequence: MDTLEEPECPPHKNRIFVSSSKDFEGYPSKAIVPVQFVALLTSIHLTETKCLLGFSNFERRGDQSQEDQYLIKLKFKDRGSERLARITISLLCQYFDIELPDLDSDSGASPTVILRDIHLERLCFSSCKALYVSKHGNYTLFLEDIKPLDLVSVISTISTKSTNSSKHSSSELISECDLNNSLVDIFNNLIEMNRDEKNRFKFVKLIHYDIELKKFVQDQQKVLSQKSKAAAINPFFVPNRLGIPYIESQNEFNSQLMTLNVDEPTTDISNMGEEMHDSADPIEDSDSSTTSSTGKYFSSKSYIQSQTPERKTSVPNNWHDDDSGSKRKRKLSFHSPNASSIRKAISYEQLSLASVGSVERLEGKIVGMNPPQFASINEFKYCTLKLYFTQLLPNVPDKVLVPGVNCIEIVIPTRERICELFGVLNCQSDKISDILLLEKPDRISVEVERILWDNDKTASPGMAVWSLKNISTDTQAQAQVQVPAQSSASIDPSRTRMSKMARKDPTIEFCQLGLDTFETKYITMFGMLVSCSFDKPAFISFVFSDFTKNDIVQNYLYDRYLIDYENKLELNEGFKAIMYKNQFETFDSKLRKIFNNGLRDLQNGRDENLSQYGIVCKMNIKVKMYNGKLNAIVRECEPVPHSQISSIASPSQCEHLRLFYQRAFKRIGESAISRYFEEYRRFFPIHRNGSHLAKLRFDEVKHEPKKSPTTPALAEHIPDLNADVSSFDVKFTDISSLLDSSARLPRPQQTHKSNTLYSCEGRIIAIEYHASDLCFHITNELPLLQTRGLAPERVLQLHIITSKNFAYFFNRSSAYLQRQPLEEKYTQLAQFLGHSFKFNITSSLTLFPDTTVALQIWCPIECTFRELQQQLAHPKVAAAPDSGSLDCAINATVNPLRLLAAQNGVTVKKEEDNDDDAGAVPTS
Description: EMSA. (In general: In EMSA bound probe runs differently from free probe, usually more slowly.)

Data set [2] has as its target T2, Cdc13-MOB (Saccharomyces cerevisiae, UniProt P32797 344-496).
T2 sequence: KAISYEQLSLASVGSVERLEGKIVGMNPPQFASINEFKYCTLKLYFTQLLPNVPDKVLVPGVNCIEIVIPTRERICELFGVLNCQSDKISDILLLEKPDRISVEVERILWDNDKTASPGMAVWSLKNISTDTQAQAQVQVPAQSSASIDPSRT

By Kd is commonly meant a measure of binding affinity in units of concentration.

Regarding GTGTGGGTGTG (ssDNA) [Tel11], in data set [1], the Kd was determined as 0.0134 ± 0.0004 nM. The binding result in data set [2] is recorded as “no binding”.

Values taken from publication PMC3874162 (Nucleic Acids Research, 2013).
